From US20220227829A1 (SHANGHAI GP BIOTECH, published 2022)

T1: CD25 protein (from Example 2)
T1 chain: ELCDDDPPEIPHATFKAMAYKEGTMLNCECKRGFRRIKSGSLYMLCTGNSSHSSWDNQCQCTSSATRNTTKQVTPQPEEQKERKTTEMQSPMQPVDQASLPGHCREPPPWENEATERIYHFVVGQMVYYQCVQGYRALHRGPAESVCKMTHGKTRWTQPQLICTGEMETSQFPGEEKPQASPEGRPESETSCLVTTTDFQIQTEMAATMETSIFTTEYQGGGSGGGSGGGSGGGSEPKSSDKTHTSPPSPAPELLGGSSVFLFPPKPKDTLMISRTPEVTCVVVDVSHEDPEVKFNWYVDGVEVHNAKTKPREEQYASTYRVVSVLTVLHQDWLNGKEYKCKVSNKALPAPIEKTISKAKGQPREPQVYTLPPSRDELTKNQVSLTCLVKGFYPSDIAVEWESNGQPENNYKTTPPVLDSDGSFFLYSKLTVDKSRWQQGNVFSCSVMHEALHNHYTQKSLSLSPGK

T2: CD25 on the surface of CTLL-2 cells (mouse cytotoxic T lymphocyte cell line) (mouse, UniProt P01590 22-268)
T2 sequence (looked up): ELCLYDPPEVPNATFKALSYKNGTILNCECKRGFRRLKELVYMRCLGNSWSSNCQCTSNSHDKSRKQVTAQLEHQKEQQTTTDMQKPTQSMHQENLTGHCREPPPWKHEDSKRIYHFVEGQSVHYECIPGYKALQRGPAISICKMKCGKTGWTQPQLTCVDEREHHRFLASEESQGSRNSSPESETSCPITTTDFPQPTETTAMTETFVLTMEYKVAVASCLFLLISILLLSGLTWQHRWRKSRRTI

T3: CD25 on the surface of NK92 cells (human NK cell line) (human, UniProt P01589 22-272)
T3 sequence (looked up): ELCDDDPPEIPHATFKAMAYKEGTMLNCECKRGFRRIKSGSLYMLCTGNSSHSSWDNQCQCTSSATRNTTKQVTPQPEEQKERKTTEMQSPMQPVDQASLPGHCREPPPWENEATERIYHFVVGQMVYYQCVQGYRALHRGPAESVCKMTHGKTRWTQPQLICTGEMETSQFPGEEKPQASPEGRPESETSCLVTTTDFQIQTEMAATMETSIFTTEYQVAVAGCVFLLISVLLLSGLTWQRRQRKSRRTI


What was measured:
[1] = molecular target: T1, CD25 protein (from Example 2); assay: ELISA on coated CD25
Experimental: (§1) CD25 (from Example 2) was coated on a 96-well high adsorption microtiter plate (3590, Costar), washed and blocked. The sample to be tested was diluted to an appropriate concentration and added to wells.

[2] = molecular target: T2, CD25 on the surface of CTLL-2 cells …; assay: cell-based or functional assay
[3] = molecular target: T3, CD25 on the surface of NK92 cells …; assay: cell-based or functional assay
[4] = molecular target: T1, CD25 protein (from Example 2); assay: ELISA on coated CD25, sample at 1 ug/ml, relative to rhIL-2 = 100%
Experimental: as §1

[5] = molecular target: T1, CD25 protein (from Example 2); assay: ELISA on coated CD25, sample at 0.2 ug/ml, relative to rhIL-2 = 100%
Experimental: as §1

[6] = molecular target: T1, CD25 protein (from Example 2); assay: ELISA on coated CD25, sample at 0.04 ug/ml, relative to rhIL-2 = 100%
Experimental: as §1

| binding result [1] | EC50 (nM), NK92 cell proliferation [3] [nM] | Potency relative to rhIL-2 (%), NK92 cell proliferation [3] [%] | Binding activity (%) [4] [%] | Binding activity (%) [5] [%] | Binding activity (%) [6] [%] | Binder | EC50 (nM), CTLL-2 cell proliferation [2] [nM] | Potency relative to rhIL-2 (%), CTLL-2 cell proliferation [2] [%] |
| --- | --- | --- | --- | --- | --- | --- | --- | --- |
| – | 0.293 | 0.661 | 2.23 | 1.18 | 1.51 | IL-2gm13 (T3A, K49N, A73T, D109N), HIS tag (ligand, Expressed in Expi293F cells; also called IL-2gm13-His) APASSSTKKTQLQLEHLLLDLQMILNGINNYKNPKLTRMLTFKFYMPKNATELKHLQCLEEELKPLEEVLNLTQSKNFHLRPRDLISNINVIVLELKGSETTFMCEYANETATIVEFLNRWITFAQSIISTLTHHHHHH | 0.144 | 2.01 |
| no binding (tested: 1 ug/ml) | 38.5 | 0.005 | 0.88 | 1.08 | 1.66 | IL-2gm1 (T3A, M39N), HIS tag (ligand, Expressed in Expi293F cells with a leader peptide; M39N is meant to make an N-glycosylation site; also called IL-2gm1-His) APASSSTKKTQLQLEHLLLDLQMILNGINNYKNPKLTRNLTFKFYMPKKATELKHLQCLEEELKPLEEVLNLAQSKNFHLRPRDLISNINVIVLELKGSETTFMCEYADETATIVEFLNRWITFAQSIISTLTHHHHHH | 83.4 | 0.003 |
| no binding (tested: 1 ug/ml) | 20.7 | 0.009 | 0.88 | 1.08 | 1.51 | IL-2gm5 (T3A, M39N, K49N, A73T), HIS tag (ligand, Expressed in Expi293F cells; also called IL-2gm5-His) APASSSTKKTQLQLEHLLLDLQMILNGINNYKNPKLTRNLTFKFYMPKNATELKHLQCLEEELKPLEEVLNLTQSKNFHLRPRDLISNINVIVLELKGSETTFMCEYADETATIVEFLNRWITFAQSIISTLTHHHHHH | 8.22 | 0.035 |

Second part, the binder before the results:

| Binder | binding result [1] | EC50 (nM), NK92 cell proliferation [3] [nM] | Potency relative to rhIL-2 (%), NK92 cell proliferation [3] [%] | Binding activity (%) [4] [%] | Binding activity (%) [5] [%] | Binding activity (%) [6] [%] | EC50 (nM), CTLL-2 cell proliferation [2] [nM] | Potency relative to rhIL-2 (%), CTLL-2 cell proliferation [2] [%] |
| --- | --- | --- | --- | --- | --- | --- | --- | --- |
| IL-2gm6 (T3A, M39N, K49N, A73T, D109N), HIS tag (ligand, Expressed in Expi293F cells; also called IL-2gm6-His) APASSSTKKTQLQLEHLLLDLQMILNGINNYKNPKLTRNLTFKFYMPKNATELKHLQCLEEELKPLEEVLNLTQSKNFHLRPRDLISNINVIVLELKGSETTFMCEYANETATIVEFLNRWITFAQSIISTLTHHHHHH | no binding (tested: 1 ug/ml) | 7.08 | 0.027 | 0.88 | 1.08 | 1.36 | 51.5 | 0.006 |
| IL-2gm3 (T3A, A73T) or (T3A, A73S), HIS tag (ligand, also called IL-2gm3-His) APASSSTKKTQLQLEHLLLDLQMILNGINNYKNPKLTRMLTFKFYMPKKATELKHLQCLEEELKPLEEVLNLTQSKNFHLRPRDLISNINVIVLELKGSETTFMCEYADETATIVEFLNRWITFAQSIISTLTHHHHHH | – | 2.21 | 0.088 | 10.3 | 5.62 | 2.27 | 0.165 | 1.76 |
| IL-2gm7 (T3A, D109N), HIS tag (ligand, Expressed in Expi293F cells; also called IL-2gm7-His) APASSSTKKTQLQLEHLLLDLQMILNGINNYKNPKLTRMLTFKFYMPKKATELKHLQCLEEELKPLEEVLNLAQSKNFHLRPRDLISNINVIVLELKGSETTFMCEYANETATIVEFLNRWITFAQSIISTLTHHHHHH | – | 0.557 | 0.347 | 8.1 | 2.96 | 1.82 | 0.365 | 0.794 |
| IL-2gm11 (T3A, K49N, D109N), HIS tag (ligand, Expressed in Expi293F cells; also called IL-2gm11-His) APASSSTKKTQLQLEHLLLDLQMILNGINNYKNPKLTRMLTFKFYMPKNATELKHLQCLEEELKPLEEVLNLAQSKNFHLRPRDLISNINVIVLELKGSETTFMCEYANETATIVEFLNRWITFAQSIISTLTHHHHHH | – | 0.28 | 0.69 | 12.5 | 5.03 | 2.42 | 0.0349 | 8.31 |
| IL-2gm2 (T3A, K49N), HIS tag (ligand, Expressed in Expi293F cells; also called IL-2gm2-His) APASSSTKKTQLQLEHLLLDLQMILNGINNYKNPKLTRMLTFKFYMPKNATELKHLQCLEEELKPLEEVLNLAQSKNFHLRPRDLISNINVIVLELKGSETTFMCEYADETATIVEFLNRWITFAQSIISTLTHHHHHH | – | 0.112 | 1.72 | 31 | 31.3 | 16.6 | 0.0638 | 4.55 |
| IL-2gm4 (T3A, K49N, A73T), HIS tag (ligand, Expressed in Expi293F cells; also called IL-2gm4-His) APASSSTKKTQLQLEHLLLDLQMILNGINNYKNPKLTRMLTFKFYMPKNATELKHLQCLEEELKPLEEVLNLTQSKNFHLRPRDLISNINVIVLELKGSETTFMCEYADETATIVEFLNRWITFAQSIISTLTHHHHHH | – | 0.234 | 0.828 | 14.8 | 7.5 | 3.18 | 0.0906 | 3.2 |
| IL-2gm12 (T3A, A73T, D109N), HIS tag (ligand, Expressed in Expi293F cells; also called IL-2gm12-His) APASSSTKKTQLQLEHLLLDLQMILNGINNYKNPKLTRMLTFKFYMPKKATELKHLQCLEEELKPLEEVLNLTQSKNFHLRPRDLISNINVIVLELKGSETTFMCEYANETATIVEFLNRWITFAQSIISTLTHHHHHH | – | 0.296 | 0.653 | 2.77 | 1.48 | 1.97 | 0.156 | 1.86 |
